Key:
[1] = biological target: T1, recombinant App (Adhesion and penetration protein)
T1 chain: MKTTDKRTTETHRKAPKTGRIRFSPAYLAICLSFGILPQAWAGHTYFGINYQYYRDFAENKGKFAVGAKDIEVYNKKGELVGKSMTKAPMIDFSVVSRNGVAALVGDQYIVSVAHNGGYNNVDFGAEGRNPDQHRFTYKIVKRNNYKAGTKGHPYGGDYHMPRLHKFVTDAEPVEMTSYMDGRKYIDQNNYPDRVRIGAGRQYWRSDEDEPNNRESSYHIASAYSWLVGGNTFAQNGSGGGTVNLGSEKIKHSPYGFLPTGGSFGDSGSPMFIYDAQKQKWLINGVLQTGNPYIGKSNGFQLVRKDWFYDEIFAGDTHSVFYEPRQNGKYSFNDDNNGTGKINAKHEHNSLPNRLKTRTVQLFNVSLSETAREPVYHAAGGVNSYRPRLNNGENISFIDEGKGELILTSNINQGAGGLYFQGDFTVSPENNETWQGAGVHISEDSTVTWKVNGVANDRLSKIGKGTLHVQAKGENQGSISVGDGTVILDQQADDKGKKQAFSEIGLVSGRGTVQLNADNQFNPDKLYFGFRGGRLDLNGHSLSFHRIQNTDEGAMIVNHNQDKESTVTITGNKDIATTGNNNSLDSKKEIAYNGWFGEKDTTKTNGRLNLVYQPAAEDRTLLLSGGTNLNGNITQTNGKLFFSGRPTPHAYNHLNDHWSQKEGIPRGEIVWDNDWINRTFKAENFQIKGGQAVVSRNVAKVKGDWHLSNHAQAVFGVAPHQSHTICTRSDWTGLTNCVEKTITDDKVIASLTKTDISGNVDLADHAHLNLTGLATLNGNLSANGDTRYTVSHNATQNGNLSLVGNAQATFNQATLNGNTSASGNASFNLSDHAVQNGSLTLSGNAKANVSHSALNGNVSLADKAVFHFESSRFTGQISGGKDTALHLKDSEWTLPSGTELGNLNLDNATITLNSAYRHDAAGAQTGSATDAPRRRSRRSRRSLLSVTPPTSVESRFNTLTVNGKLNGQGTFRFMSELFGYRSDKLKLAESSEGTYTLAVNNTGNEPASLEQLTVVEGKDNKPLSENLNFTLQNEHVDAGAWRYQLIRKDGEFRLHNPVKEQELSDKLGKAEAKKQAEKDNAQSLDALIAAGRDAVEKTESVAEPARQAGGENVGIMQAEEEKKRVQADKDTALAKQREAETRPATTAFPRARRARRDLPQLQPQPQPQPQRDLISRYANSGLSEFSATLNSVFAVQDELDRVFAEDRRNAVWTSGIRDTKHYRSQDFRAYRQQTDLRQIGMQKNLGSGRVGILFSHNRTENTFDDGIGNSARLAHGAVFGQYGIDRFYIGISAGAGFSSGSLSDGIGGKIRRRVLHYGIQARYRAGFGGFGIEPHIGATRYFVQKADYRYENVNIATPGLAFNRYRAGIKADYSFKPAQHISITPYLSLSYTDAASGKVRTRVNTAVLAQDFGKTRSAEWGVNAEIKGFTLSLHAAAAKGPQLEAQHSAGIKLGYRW

[2] = biological target: T2, GNA1870 surface-exposed lipoprotein, Q9JXV4
T2 chain: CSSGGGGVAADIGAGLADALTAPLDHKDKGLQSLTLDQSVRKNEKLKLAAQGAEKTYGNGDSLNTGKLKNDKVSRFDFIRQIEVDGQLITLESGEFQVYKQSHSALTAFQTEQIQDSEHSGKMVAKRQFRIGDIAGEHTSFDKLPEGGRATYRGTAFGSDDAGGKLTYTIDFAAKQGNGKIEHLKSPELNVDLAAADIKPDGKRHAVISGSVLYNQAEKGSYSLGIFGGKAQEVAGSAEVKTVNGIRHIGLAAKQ

[3] = biological target: T3, meningococcal protein 287 (purified)
T3 chain: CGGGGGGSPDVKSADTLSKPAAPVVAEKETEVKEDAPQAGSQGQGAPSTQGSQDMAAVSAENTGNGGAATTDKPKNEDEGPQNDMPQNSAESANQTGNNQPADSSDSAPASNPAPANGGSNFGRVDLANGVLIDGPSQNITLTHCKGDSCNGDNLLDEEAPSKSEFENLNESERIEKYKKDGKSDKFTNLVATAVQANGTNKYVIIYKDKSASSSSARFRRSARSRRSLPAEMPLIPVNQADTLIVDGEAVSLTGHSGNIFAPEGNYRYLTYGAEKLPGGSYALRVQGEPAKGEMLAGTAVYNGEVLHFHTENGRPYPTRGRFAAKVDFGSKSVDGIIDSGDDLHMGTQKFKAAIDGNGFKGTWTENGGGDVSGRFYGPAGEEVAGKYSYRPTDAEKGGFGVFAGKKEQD

B1: human lactoferrin (protein)
chain: GRRRSVQWCAVSQPEATKCFQWQRNMRKVRGPPVSCIKRDSPIQCIQAIAENRADAVTLDGGFIYEAGLAPYKLRPVAAEVYGTERQPRTHYYAVAVVKKGGSFQLNELQGLKSCHTGLRRTAGWNVPIGTLRPFLNWTGPPEPIEAAVARFFSASCVPGADKGQFPNLCRLCAGTGENKCAFSSQEPYFSYSGAFKCLRDGAGDVAFIRESTVFEDLSDEAERDEYELLCPDNTRKPVDKFKDCHLARVPSHAVVARSVNGKEDAIWNLLRQAQEKFGKDKSPKFQLFGSPSGQKDLLFKDSAIGFSRVPPRIDSGLYLGSGYFTAIQNLRKSEEEVAARRARVVWCAVGEQELRKCNQWSGLSEGSVTCSSASTTEDCIALVLKGEADAMSLDGGYVYTAGKCGLVPVLAENYKSQQSSDPDPNCVDRPVEGYLAVAVVRRSDTSLTWNSVKGKKSCHTAVDRTAGWNIPMGLLFNQTGSCKFDEYFSQSCAPGSDPRSNLCALCIGDEQGENKCVPNSNERYYGYTGAFRCLAENAGDVAFVKDVTVLQNTDGNNNEAWAKDLKLADFALLCLDGKRKPVTEARSCHLAMAPNHAVVSRMDKVERLKQVLLHQQAKFGRNGSDCPDKFCLFQSETKNLLFNDNTECLARLHGKTTYEKYLGPQYVAGITNLKKCSTSPLLEACEFLRK
- proteolytic cleavage (western blot with anti-App) [1]: the App antigen was cleaved in different fragments
- proteolytic degradation on meningococci (western blot with anti-GNA1870) [2]: lactoferrin treatment under conditions which degrade App had no effect on ONA1870
- proteolytic cleavage (SDS-PAGE and western blot with rabbit anti-287) [3]: Lane 3 shows definite cleavage of protein 287
- share of N-terminus RSLPAEMPL in the ~19 kDa cleavage fragment [3]: RSLPAEMPL (˜30%)
- share of N-terminus SLPAEMPLI in the ~19 kDa cleavage fragment [3]: SLPAEMPLI (˜70%)

Reference: patent US20080193971
